# B1: human SET8 (KMT5A Isoform 2) (enzyme)
# chain: MARGRKMSKPRAVEAAAAAAAVAATAPGPEMVERRGPGRPRTDGENVFTGQSKIYSYMSPNKCSGMRFPLQEENSVTHHEVKCQGKPLAGIYRKREEKRNAGNAVRSAMKSEEQKIKDARKGPLVPFPNQKSEAAEPPKTPPSSCDSTNAAIAKQALKKPIKGKQAPRKKAQGKTQQNRKLTDFYPVRRSSRKSKAELQSEERKRIDELIESGKEEGMKIDLIDGKGRGVIATKQFSRGDFVVEYHGDLIEITDAKKREALYAQDPSTGCYMYYFQYLSKTYCVDATRETNRLGRLINHSKCGNCQTKLHDIDGVPHLILIASRDIAAGEELLYDYGDRSKASIEAHPWLKH
# notes: SET8 (KMT5A), human, isoform 2, UniProt Q9NQR1-2; residue numbers (Arg188, Arg192) count on isoform 2; His6 tag removed with PreScission protease (modified pET15b vector); also called PR-SET7; SETD8; source: E. coli BL21(DE3), purified (Ni-NTA, Mono S, Superdex 200)
# Target: histone H4 (human, UniProt P62805 1-103)
# Test: cryo-EM structure; NCP or NCP^CENP-A (0.52 μM) mixed with SET8 (1.0 or 0.94 μM) at 25°C with 0.10 mM S-adenosyl-L-homocysteine, 50 mM NaCl, 50 mM KCl; complex purified by GraFix (sucrose gradient with paraformaldehyde cross-linking)
# Conditions: both partners purified
binder,measurement,value
B1,binding result,binds
